Literature values in article PMC4409539 (Cancer gene therapy, 2015).

Experiments:
[1] = tested on: pancreatic tumor cells; conditions: pancreatic tumor cells infected at 25 pfu/cell with bCD
[2] = yCD versus bCD

Row | Molecule | 5-FC conversion [1] [pmol/min/mg] | Km for 5-FC, fold lower than bCD [2] [fold] | thermal stability compared with bCD [2]
1 | bacterial cytosine deaminase [bCD] | 0.2 to 0.7 | – | –
2 | yeast cytosine deaminase (protein, UniProt Q12178 1-158, looked up) Cytosine deaminase: MVTGGMASKWDQKGMDIAYEEAALGYKEGGVPIGGCLINNKDGSVLGRGHNMRFQKGSATLHGEISTLENCGRLEGKVYKDTTLYTTLSPCDMCTGAIIMYGIPRCVVGENVNFKSKGEKYLQTRGHEVVVVDDERCKKIMKQFIDERPQDWFEDIGE | – | 22 | more thermolabile than bCD
